The supplement of paper PMC7125110
± gives the standard error. Variants at the floor of the assay were thinned out.

B1: glmS ribozyme (parent)
chain: AUAAAAGCGCCAGAACUACAGAAAUGUAGUUGACGAGGAGGAGGUUUAUCGAAUUUUCGGCGGAUGCCUCCAAA

Experiments:
Details in all cases: with glucosamine-6-phosphate
glucosamine-6-phosphate [1] = variants of: B1; assay: self-cleavage kobs at 640 uM GlcN6P; higher = faster cleavage; RNA array
Method in brief: (§1)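 Using a hybridised Cy3 probe at 37 °C, barcoded ribozyme variants transcribed in situ by E. coli RNA polymerase on sequenced MiSeq chips were monitored across tiles imaged over ~14 h. The flow contained glucosamine-6-phosphate from 40 μM to 10 mM in HEPES/KCl/Mg(OAc)2 buffer. Signals were normalised to baseline and to non-cleaving reference variants before per-tile medians were fit to one- or two-exponential decays to yield kobs. Weighted Michaelis–Menten fits across concentrations gave kcat and KM.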

glucosamine-6-phosphate [2] = variants of: B1; assay: self-cleavage kobs at 2500 uM GlcN6P; higher = faster cleavage; RNA array
Method in brief: as §1

glucosamine-6-phosphate [3] = variants of: B1; assay: self-cleavage kobs at 160 uM GlcN6P; higher = faster cleavage; RNA array
Method in brief: as §1

glucosamine-6-phosphate [4] = variants of: B1; assay: self-cleavage kobs at 10000 uM GlcN6P; higher = faster cleavage; RNA array
Method in brief: as §1

Variant	self-cleavage kobs at 640 uM GlcN6P (glucosamine-6-phosphate [1])	self-cleavage kobs at 2500 uM GlcN6P (glucosamine-6-phosphate [2])	self-cleavage kobs at 160 uM GlcN6P (glucosamine-6-phosphate [3])	self-cleavage kobs at 10000 uM GlcN6P (glucosamine-6-phosphate [4])
C8A G13U C16A A33U U65G C71A	< 1e-05 s⁻¹	< 1e-05 s⁻¹		
A6G G38A G43U A48U A52C U69G		< 1e-05 s⁻¹	< 1e-05 s⁻¹	
G32U G41U G60A		< 1e-05 s⁻¹	< 1e-05 s⁻¹	
U57C G62A			< 1e-05 s⁻¹	< 1e-05 s⁻¹
G35A G40U G62U	< 1e-05 s⁻¹	< 1e-05 s⁻¹		
A39U G41U U56G	6.4e-05 ± 1.9e-05 s⁻¹	0.000106 ± 2.3e-05 s⁻¹		
G9U U31G A48G			< 1e-05 s⁻¹	
A33G G51A U55C C68A	< 1e-05 s⁻¹			
U30G G40A	0.000261 ± 6.3e-05 s⁻¹	0.000813 ± 0.00013 s⁻¹	0.000128 ± 3.7e-05 s⁻¹	
A14C G32C G35U U57A	< 1e-05 s⁻¹		< 1e-05 s⁻¹	
C11G A39C	< 1e-05 s⁻¹	< 1e-05 s⁻¹		< 1e-05 s⁻¹
G29C G32C G37U U45G	< 1e-05 s⁻¹	< 1e-05 s⁻¹	< 1e-05 s⁻¹	
G35A G62C	< 1e-05 s⁻¹	< 1e-05 s⁻¹	< 1e-05 s⁻¹	
C34U C71U	< 1e-05 s⁻¹	< 1e-05 s⁻¹	< 1e-05 s⁻¹	< 1e-05 s⁻¹
U31A G62C C71U	< 1e-05 s⁻¹		< 1e-05 s⁻¹	
A15C C16U U56C	7.03e-05 ± 1.8e-05 s⁻¹	0.000249 ± 7.3e-05 s⁻¹		
A15U C16A C71U	0.000111 ± 3.7e-05 s⁻¹	0.000598 ± 0.00019 s⁻¹		
G35A C50U G62C C68G	< 1e-05 s⁻¹			
A12G C34A A36G		< 1e-05 s⁻¹	< 1e-05 s⁻¹	
A15C A36G G38U		< 1e-05 s⁻¹	< 1e-05 s⁻¹	
C61G G62A C67U C68A	4.43e-05 ± 1.5e-05 s⁻¹	0.000107 ± 2.2e-05 s⁻¹	0.000136 ± 2.6e-05 s⁻¹	
A39G G44A C58A	< 1e-05 s⁻¹			
C11A A39G	0.000101 ± 2.7e-05 s⁻¹	0.000121 ± 2.7e-05 s⁻¹		0.000422 ± 7.8e-05 s⁻¹
C11U U55G C71A	8.41e-05 ± 1.7e-05 s⁻¹	0.000143 ± 5.3e-05 s⁻¹	3.73e-05 ± 1.5e-05 s⁻¹	
U55A A64G C71A	0.000572 ± 0.00013 s⁻¹		0.000178 ± 4.2e-05 s⁻¹	
G9A U65G	< 1e-05 s⁻¹		< 1e-05 s⁻¹	
G9U G35A G44U A53C C71G	< 1e-05 s⁻¹	< 1e-05 s⁻¹		

Variant	self-cleavage kobs at 640 uM GlcN6P (glucosamine-6-phosphate [1])	self-cleavage kobs at 2500 uM GlcN6P (glucosamine-6-phosphate [2])	self-cleavage kobs at 160 uM GlcN6P (glucosamine-6-phosphate [3])	self-cleavage kobs at 10000 uM GlcN6P (glucosamine-6-phosphate [4])
A15U A42U G51A C67U	< 1e-05 s⁻¹		< 1e-05 s⁻¹	< 1e-05 s⁻¹
A36C U46G U54A U55G	< 1e-05 s⁻¹			
A14U U49C U57G C70G	6.79e-05 ± 2.7e-05 s⁻¹	6.68e-05 ± 2.2e-05 s⁻¹	9.25e-05 ± 2.7e-05 s⁻¹	
G29U G32U G44C U65C	< 1e-05 s⁻¹			
A6G U69C			< 1e-05 s⁻¹	2.56e-05 ± 1e-05 s⁻¹
A15U G38C G43C G51U	< 1e-05 s⁻¹		< 1e-05 s⁻¹	< 1e-05 s⁻¹
A33U C68A C70G		< 1e-05 s⁻¹	< 1e-05 s⁻¹	
G35C A42U G43A A52U	< 1e-05 s⁻¹	< 1e-05 s⁻¹	< 1e-05 s⁻¹	
C8U G35C C70G			< 1e-05 s⁻¹	
G32A A53C C71U	7.17e-05 ± 2.3e-05 s⁻¹	0.000197 ± 4.7e-05 s⁻¹	3.67e-05 ± 1.6e-05 s⁻¹	
C16U U65A U69A	0.000105 ± 2.4e-05 s⁻¹	4.97e-05 ± 1.7e-05 s⁻¹	3.44e-05 ± 1.7e-05 s⁻¹	2.63e-05 ± 1.2e-05 s⁻¹
G35A G41C	< 1e-05 s⁻¹		< 1e-05 s⁻¹	
A6C C8U C67A C70U			< 1e-05 s⁻¹	
C10U A12U G44A U49C C70G	< 1e-05 s⁻¹	< 1e-05 s⁻¹	< 1e-05 s⁻¹	
C10A A42U	< 1e-05 s⁻¹	< 1e-05 s⁻¹	< 1e-05 s⁻¹	
G51U A53U C58A C70A	7.01e-05 ± 2.6e-05 s⁻¹	5.47e-05 ± 2.1e-05 s⁻¹	8.95e-05 ± 1.6e-05 s⁻¹	
U46G G51U C71U	< 1e-05 s⁻¹	< 1e-05 s⁻¹		
C16G A42G G60C C70U		< 1e-05 s⁻¹	< 1e-05 s⁻¹	
C8U G32C U47A	< 1e-05 s⁻¹	< 1e-05 s⁻¹	< 1e-05 s⁻¹	
G32U A42G G66U C68U	< 1e-05 s⁻¹			
A12G U49A G63U	< 1e-05 s⁻¹		< 1e-05 s⁻¹	
A39G C50G			0.000247 ± 0.00011 s⁻¹	
G7U G35U G38C	< 1e-05 s⁻¹	< 1e-05 s⁻¹		< 1e-05 s⁻¹
A42C A52G U55A U57G C68U C70U	< 1e-05 s⁻¹	< 1e-05 s⁻¹	< 1e-05 s⁻¹	
G7U G9C G59C U69G	< 1e-05 s⁻¹		< 1e-05 s⁻¹	
A6U A14U G38U C50A G51U A53C G63A			< 1e-05 s⁻¹	
G41C U46A G60C	< 1e-05 s⁻¹	< 1e-05 s⁻¹		
